Experimental data taken from patent US20140212458A1.
Values joined by “and” are separate entries in the source; they are usually repeats but may differ in a detail not shown here. Equal values may be shown once.

How the values were obtained:
[1] = biological target: BG505 gp120-D7324 monomer in the presence of sCD4 (HIV-1 BG505 (clade A)); experiment: D7324-capture ELISA with sCD4 (panel B)
[2] = biological target: BG505 SOSIP.664-D7324 gp140 trimer (HIV-1 BG505 (clade A)); experiment: D7324-capture ELISA, average of 2-6 titrations
[3] = biological target: BG505 SOSIP.664 gp140 trimer (HIV-1 BG505 (clade A)); experiment: negative stain EM, 2D class averages; Fab 240 nM, trimer 14 nM
[4] = biological target: BG505 SOSIP.664 gp140 trimer (HIV-1 BG505 (clade A)); experiment: negative stain EM, 2D class averages; Fab 480 nM, trimer 44 nM
[5] = biological target: recombinant HIV-1 envelope glycoprotein gp120 BG505 clade A (HIV-1 BG505 (clade A)); experiment: ELISA on BG505 gp120
[6] = biological target: BG505 gp41ECTO-His (HIV-1 BG505 (clade A)); experiment: Ni-NTA-capture ELISA (panel C)
[7] = biological target: JR-FL gp120 core with mini V3 (HIV-1 JR-FL); experiment: ITC
[8] = biological target: BG505 SOSIP.664 gp140 trimer (HIV-1 BG505 (clade A)); experiment: negative stain EM (not shown)
[9] = biological target: BG505 SOSIP.664-D7324 gp140 trimer (HIV-1 BG505 (clade A)); experiment: D7324-capture ELISA (panel B)
[10] = biological target: BG505 SOSIP.664 gp140 trimer (HIV-1 BG505 (clade A)); experiment: ITC
[11] = biological target: BG505 SOSIP.664 gp140 trimer (HIV-1 BG505 (clade A)); experiment: ITC; remark: listed apart in the source
[12] = biological target: BG505 SOSIP.664-His gp140 trimer (HIV-1 BG505 (clade A)); experiment: Ni-NTA-capture ELISA (panel C)
[13] = biological target: BG505 SOSIP.664 gp140 trimer (HIV-1 BG505 (clade A)); experiment: ITC, antibody titrated into trimer
[14] = biological target: BG505 gp120 monomer (HIV-1 BG505 (clade A)); experiment: ITC
[15] = biological target: BG505 SOSIP.664 gp140 trimer (HIV-1 BG505 (clade A)); experiment: ITC, Fab titrated into Env, 25 C
[16] = biological target: BG505 gp120 monomer (HIV-1 BG505 (clade A)); experiment: ITC, Fab titrated into Env, 25 C
[17] = biological target: BG505 SOSIP.664 gp140 trimer (HIV-1 BG505 (clade A)); experiment: SDS-PAGE of SEC fractions, ImageJ
[18] = biological target: BG505 SOSIP.664 gp140 trimer (HIV-1 BG505 (clade A)); experiment: ITC, Fab titrated into trimer; footnote f: data previously described elsewhere (Julien 2013, the applicants' own PG9:trimer study, also an example of this filing)
[19] = biological target: BG505 SOSIP.664-D7324 gp140 trimer (HIV-1 BG505 (clade A)); experiment: D7324-capture ELISA (panel D)
[20] = biological target: BG505 SOSIP.664 gp140 trimer (HIV-1 BG505 (clade A)); experiment: negative stain EM
[21] = biological target: BG505 SOSIP.664 gp140 trimer (HIV-1 BG505 (clade A)); experiment: negative stain EM, 2D class averages; Fab 600 nM, trimer 40 nM
[22] = biological target: BG505 SOSIP.664-His gp140 trimer (HIV-1 BG505 (clade A)); experiment: SPR, trimer on NTA chip, IgG 1,000 nM
[23] = biological target: BG505 gp120-D7324 monomer (HIV-1 BG505 (clade A)); experiment: D7324-capture ELISA (panel A)
[24] = biological target: BG505 SOSIP.664 gp140 trimer (HIV-1 BG505 (clade A)); experiment: ITC, two-site model
[25] = biological target: BG505 SOSIP.664 gp140 trimer (HIV-1 BG505 (clade A)); experiment: negative stain EM, 2D class averages; Fab 860 nM, trimer 48 nM
[26] = biological target: BG505 SOSIP.664-D7324 gp140 trimer (HIV-1 BG505 (clade A)); experiment: D7324-capture ELISA (panel A)

A32 (antibody)
EC50 (read off the curve) [1]: 0.04 µg/mL
EC50 [2]: > 10 µg/mL

PGT130 (antibody)
EC50 [2]: 0.524 µg/mL

CH31 (antibody)
EC50 [2]: 0.347 µg/mL

14e Fab
% 1 Fab bound [3]: 17%
% 2 Fabs bound [3]: 2%
% 3 Fabs bound [3]: 0%
% trimer alone [3]: 81%
particles, 1 Fab bound [3]: 4440 particles
particles, 2 Fabs bound [3]: 610 particles
particles, 3 Fabs bound [3]: 0 particles
particles, trimer alone [3]: 21900 particles

PGT127 (antibody)
EC50 [2]: 0.066 µg/mL

PGT136 (antibody)
EC50 [2]: 0.434 µg/mL

b6 Fab
% 1 Fab bound [4]: 6%
% 2 Fabs bound [4]: 0%
% 3 Fabs bound [4]: 0%
% trimer alone [4]: 94%
particles, 1 Fab bound [4]: 354 particles
particles, 2 Fabs bound [4]: 0 particles
particles, 3 Fabs bound [4]: 0 particles
particles, trimer alone [4]: 5610 particles

PGV04 (antibody)
EC50 [2]: 0.227 µg/mL

b12 (antibody)
EC50 (read off the curve) [5]: 0.03 µg/mL
EC50 [2]: > 10 µg/mL

F240 (antibody)
EC50 (read off the curve) [6]: 0.01 µg/mL
EC50 [2]: > 10 µg/mL

PGT135 Fab
Kd [7]: 82 nM
% of images with no Fabs bound [8]: < 3%
% of images with three Fabs bound [8]: > 50%

CH103 (antibody)
EC50 [2]: 0.792 µg/mL

3BC176 (antibody)
EC50 [2]: 5.65 µg/mL

3BC315 (antibody)
EC50 [2]: 0.962 µg/mL

VRC03 (antibody)
EC50 (read off the curve) [9]: 0.6 µg/mL
EC50 [2]: 0.647 µg/mL

PGT123 (antibody)
EC50 [2]: 0.127 µg/mL

CH01 (antibody)
EC50 [2]: 2.78 µg/mL

PGT126 (antibody)
EC50 (read off the curve) [9]: 0.03 µg/mL
EC50 [2]: 0.026 µg/mL

PGT127 Fab
N (stoichiometry of binding) [10]: < 3
Kd [11]: 70 nM

VRC01 (antibody)
EC50 (read off the curve) [12]: 0.03 µg/mL
EC50 [2]: 0.163 µg/mL

8ANC195 (antibody)
EC50 [2]: 2.06 µg/mL

1NC9 (antibody)
EC50 [2]: 0.735 µg/mL

CD4-IgG2 (Fc fusion)
EC50 [2]: 0.155 µg/mL

VRC06 (antibody)
EC50 [2]: 1.1 µg/mL

PGT121 Fab
-TΔS [13]: 20.6 kcal/mol
Kd [13]: 151 nM and 7.55 µg/mL
N (stoichiometry of binding) [13]: 2.4
ΔG [13]: -9.3 kcal/mol
ΔH [13]: -29.9 kcal/mol

VRC06b (antibody)
EC50 (read off the curve) [9]: 0.4 µg/mL
EC50 [2]: 0.345 µg/mL

45-46 (antibody)
EC50 [2]: 0.127 µg/mL

PGV04 Fab
% of images with no Fabs bound [8]: < 3%
% of images with three Fabs bound [8]: > 50%

PG9 Fab
Kd [10]: 20 to 30 nM
Kd [14]: 20 to 30 nM
Kd [11]: 30 nM
ΔG [15]: -10.1 kcal/mol
ΔH [15]: -20.6 kcal/mol
-TΔS [16]: 17.2 kcal/mol
Kd [16]: 31 nM
N (stoichiometry of binding) [16]: 0.4
ΔG [16]: -10.2 kcal/mol
ΔH [16]: -27.4 kcal/mol
gp140 protomers per PG9 Fab [17]: 3
-TΔS [18]: 7.8 kcal/mol
Kd [18]: 11 nM and 0.55 µg/mL
N (stoichiometry of binding) [18]: 0.8
ΔG [18]: -10.9 kcal/mol
ΔH [18]: -18.7 kcal/mol

PG16 (antibody)
EC50 (read off the curve) [5]: 0.2 µg/mL
EC50 (read off the curve) [19]: 0.1 µg/mL
EC50 [2]: 0.199 µg/mL

PGT125 (antibody)
EC50 (read off the curve) [9]: 0.04 µg/mL
EC50 [2]: 0.047 µg/mL

PG9 (antibody)
EC50 (read off the curve) [5]: 0.04 µg/mL
EC50 (read off the curve) [19]: 0.4 µg/mL
EC50 [2]: 0.343 µg/mL

3BNC117 (antibody)
EC50 (read off the curve) [9]: 0.1 µg/mL
EC50 [2]: 0.102 µg/mL

PGT122 (antibody)
EC50 [2]: 0.159 µg/mL

PGT145 (antibody)
EC50 (read off the curve) [19]: 0.06 µg/mL
EC50 [2]: 0.114 µg/mL

F105 (antibody)
EC50 [2]: > 10 µg/mL

19b Fab
% of trimers occupied by one, two or three Fabs [20]: 39%
% 1 Fab bound [21]: 30%
% 2 Fabs bound [21]: 8%
% 3 Fabs bound [21]: 1%
% trimer alone [21]: 61%
particles, 1 Fab bound [21]: 12500 particles
particles, 2 Fabs bound [21]: 3050 particles
particles, 3 Fabs bound [21]: 211 particles
particles, trimer alone [21]: 25100 particles

PGT122 Fab
% of images with no Fabs bound [8]: < 3%
% of images with three Fabs bound [8]: > 50%

HJ16 (antibody)
EC50 [2]: 4.38 µg/mL

3BNC60 (antibody)
EC50 (read off the curve) [9]: 0.03 µg/mL
EC50 [2]: 0.095 µg/mL

F91 (antibody)
EC50 [2]: > 10 µg/mL

b6 (antibody)
plateau response (RU) [22]: 30 RU
EC50 (read off the curve) [23]: 0.09 µg/mL
EC50 [2]: 0.871 µg/mL

PGT128 Fab
Kd2 (second, low affinity binding event) [24]: 20 µM
-TΔS [13]: 11.6 kcal/mol
Kd [13]: 5.7 nM and 0.285 µg/mL
N (stoichiometry of binding) [13]: 2.3
ΔG [13]: -11.2 kcal/mol
ΔH [13]: -22.8 kcal/mol

F240 Fab
% 1 Fab bound [25]: 2%
% 2 Fabs bound [25]: 0%
% 3 Fabs bound [25]: 0%
% trimer alone [25]: 98%
particles, 1 Fab bound [25]: 154 particles
particles, 2 Fabs bound [25]: 0 particles
particles, 3 Fabs bound [25]: 0 particles
particles, trimer alone [25]: 6260 particles

2G12 (antibody)
Kd2 (second, low affinity binding event) [24]: 12.3 µM
-TΔS [13]: 28.4 kcal/mol
Kd [13]: 16 nM and 2.4 µg/mL
N (stoichiometry of binding) [13]: 2.4
ΔG [13]: -10.6 kcal/mol
ΔH [13]: -39 kcal/mol
EC50 (read off the curve) [26]: 0.02 µg/mL
EC50 (read off the curve) [23]: 0.01 µg/mL
EC50 [2]: 0.027 µg/mL

PGT128 (antibody)
EC50 (read off the curve) [9]: 0.04 µg/mL
plateau response (RU) [22]: 750 RU
EC50 (read off the curve) [26]: 0.04 µg/mL
EC50 (read off the curve) [23]: 0.04 µg/mL
EC50 [2]: 0.058 µg/mL

12A12 (antibody)
EC50 [2]: 0.08 µg/mL

7B2 (antibody)
EC50 [2]: > 10 µg/mL

CH106 (antibody)
EC50 [2]: 2.57 µg/mL

PGT121 (antibody)
EC50 (read off the curve) [9]: 0.09 µg/mL
EC50 [2]: 0.095 µg/mL

PGT135 (antibody)
EC50 [2]: 0.521 µg/mL

X5 (antibody)
EC50 [2]: > 10 µg/mL
